Drawing on US6448377, this text covers GTPγS-sensitive high-affinity agonist binding sites, basal GTPase activity, tetGsα membranes compared to Gsα membranes and isoproterenol-stimulated GTPase activity, tetGsα membranes compared to Gsα membranes for one substance.

This test addresses β2 adrenoceptor, tagged at the amino-terminus with the FLAG epitope (UniProt P07550). The test can be described thus: cell-based or functional assay.

For “membrane-tethered Gsα (tetGsα) (from UniProt P07550 1-64; P07550 343-412)”, the GTPγS-sensitive high-affinity agonist binding sites was 30%; the basal GTPase activity, tetGsα membranes compared to Gsα membranes worked out at 1.6 fold; the isoproterenol-stimulated GTPase activity, tetGsα membranes compared to Gsα membranes is 2.8 fold.
